Assay results from the nanobody polyreactivity screen of Harvey et al. (2022).

Experiment: yeast display, Sf9 membrane polyspecificity reagent, FACS + sequencing; frameworks hold sequencing errors
Method in brief: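 After 36–48 hours of galactose induction, yeast (Saccharomyces cerevisiae BJ5465) displaying a synthetic nanobody library were stained at 4 °C for 1 hour with 10% biotinylated, detergent-solubilized Sf9 membrane reagent. Streptavidin microbeads enriched the stained cells before FACS sorting into low and high (top ~1%) gates on anti-HA and streptavidin fluorescence. Each clone's polyreactivity label reflects its gate of origin.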

**Q.** For “QVQLVESGGGLVQAGGSLRLSCAASGRIFDIYAMGWYRQAPGKERELVAGITWRAGSTYYADSVKGRFTISRDNAKNTVYLQMNSLKPEDTAVYYCAAEVWVTDPYWGDFYYWGHGTQVTVSS”, which “polyreactivity (PSR sort gate)” value is on record?
**A.** The value was “low polyreactivity”.

**Q.** With “QVQLVESGGGLVQAGGSLRLSCAASGRIFDIYGMGWYRQAPGKERELVAAITSGGSTYYADSVKGRFTISRDNAKNTVYLQMNSLKPEDTAVYYCAADSVLLKDTGYDYWGQGTQVTVSS” as the sequence, how does the “polyreactivity (PSR sort gate)” value read?
**A.** The value was “low polyreactivity”.

**Q.** Which “polyreactivity (PSR sort gate)” value does the source give for “QVQLVESGGGLVQAGGSLRLSCAASGRIFDKYAMGWYRQAPGKERELVAAITRSGGRTYYADSVKGRFTISRDNAKNTVYLQMNSLKPEDTAVYYCAARYVSRFDWGQGTQVTVSS” here?
**A.** Its value is “high polyreactivity”.

**Q.** For “QVQLVESGGGLVQAGGSLRLSCAASGRIFDLNAMGWYRQAPGKERELVAAISYSGDRTYYADSVKGRFTISRDNAKNTVYLQMNSLKPEDTAVYYCNVRKTWYGYSVTGRYDYWGQGTQVTVSS”, which “polyreactivity (PSR sort gate)” value is on record?
**A.** The value was “low polyreactivity”.

**Q.** Which “polyreactivity (PSR sort gate)” value does the source give for “QVQLVESGGGLVQAGGSLRLSCAASGRIFDPYAMGGYRQAPGKERELVANITLRGGITYYADSVKGRFTISRDNAKNTVYLQMNSLKPEDTAVYDCNADGYPDVGAGTYGYWGQGTQVTVSS” here?
**A.** The value was “low polyreactivity”.

**Q.** With “QVQLVESGGGLVQAGGSLRLSCAASGRIFDPYAMGWYRQAPGKERELVATITRSGGSTYYADSVKGRFTISRDNAKNTVYLQMNSLKPEDTAVYYCAVGDGFEYDWGQGTQVTVSS” as the sequence, how does the “polyreactivity (PSR sort gate)” value read?
**A.** The value was “low polyreactivity”.

**Q.** With “QVQLVESGGGLVQAGGSLRLSCAASGRIFDQYAMGWYRQAPGKERELVAAITSGGSTYYADSVKGRFTISRDNAKNTVYLQMNSLKPEDTAVYYCAAEWQWYGYVLYKYYYWGQGTQVTVSS” as the sequence, how does the “polyreactivity (PSR sort gate)” value read?
**A.** The value was “high polyreactivity”.

**Q.** With “QVQLVESGGGLVQAGGSLRLSCAASGRIFDRNAMGWYRPAPGKERELVAAISRRGGSTYYADSVKGRITISRDNAKNTVYLQMNSLKPEDTAVYYCAARFLYRSVKMDYWGQGTQVTVSS” as the sequence, how does the “polyreactivity (PSR sort gate)” value read?
**A.** The value was “high polyreactivity”.

**Q.** Which “polyreactivity (PSR sort gate)” value does the source give for “QVQLVESGGGLVQAGGSLRLSCAASGRIFDRNAMGWYRQAPGKERELVAAISWSGGRTYYADSVKGRFTISRDNAKNTVYLQMNSLKPEDTAVYYCAADHYPWWAWEFDYWGQGTQVTVSS” here?
**A.** Its value is “low polyreactivity”.

**Q.** Which “polyreactivity (PSR sort gate)” value does the source give for “QVQLVESGGGLVQAGGSLRLSCAASGRIFDRNAMGWYRQARGKARELVARIDPGDDTNYADSVKGRFTISRDNAKNKVYLQMNSLQPEDTAVYYCATDPDYVLYRTAYYEYDYWGQGTQVTVSS” here?
**A.** Its value is “low polyreactivity”.

**Q.** For “QVQLVESGGGLVQAGGSLRLSCAASGRIFDRYGMGWYRQAPGKERELLAAITSRGGSTYYADSVKGRFTISRDNAKNTVYLQMNSLKPEDTAVYYCAAYGRYGFGRVERYDYWGQGTQVTVSS”, which “polyreactivity (PSR sort gate)” value is on record?
**A.** Its value is “high polyreactivity”.

**Q.** Which “polyreactivity (PSR sort gate)” value does the source give for “QVQLVESGGGLVQAGGSLRLSCAASGRIFDSNAMGWYRPAPGKERELVAAISYDGGSTYYADSVKGRFTISRDNAKNTVYLQMNSLKPEDTAVYYCAADDGWYYYYGYDYWGQGTQVTVSS” here?
**A.** Its value is “low polyreactivity”.

**Q.** For “QVQLVESGGGLVQAGGSLRLSCAASGRIFDSNAMGWYRQAPGTEREFVAAITYSSGSTYYRNSVKGRFTISRDNAKNTVYLQMNSLKPEDTAVYYCAAVLYWRTLSSRYDYWGQGTQVTVSS”, which “polyreactivity (PSR sort gate)” value is on record?
**A.** The value was “high polyreactivity”.

**Q.** Which “polyreactivity (PSR sort gate)” value does the source give for “QVQLVESGGGLVQAGGSLRLSCAASGRIFDTNAMGWYRQAPGKERELVAAISSSGGRTYYADSVKGRFTISRDNAKNTVYLQMNSLRPEDTAVYYCARVPITKDQYSHYYYWGQGTQVTVSS” here?
**A.** The value was “high polyreactivity”.

**Q.** For “QVQLVESGGGLVQAGGSLRLSCAASGRIFDVYAMGWYRQAPGKERELVAAITWSGTSTYYADSVKGRFTISRDNAKNTVYLQMNSLKPEDTAVYYCAAEVAYTDTEYFWYYYWGQGTQVTVSS”, which “polyreactivity (PSR sort gate)” value is on record?
**A.** Its value is “high polyreactivity”.

**Q.** For “QVQLVESGGGLVQAGGSLRLSCAASGRIFDYNAMGWYRQAPGKERELVASITQRGDITYYADSVKGRFTISRDNAKNTVYLQMNSLKPEDTAVYYCNADGVRVWVLPYVLYTGDYWGQGTQVTVSS”, which “polyreactivity (PSR sort gate)” value is on record?
**A.** The value was “low polyreactivity”.

**Q.** Which “polyreactivity (PSR sort gate)” value does the source give for “QVQLVESGGGLVQAGGSLRLSCAASGRIFDYYAMGWNRQAPGKERELVAAITWSGGNTYYADSVKGRFTISRDNAKNTVYLQMNSLKPEDTAVYYCAAEYYYLNDIYSEYDYWGQGTQVTVSS” here?
**A.** The value was “high polyreactivity”.

**Q.** Which “polyreactivity (PSR sort gate)” value does the source give for “QVQLVESGGGLVQAGGSLRLSCAASGRIFDYYAMGWYRQAPGKERELVAAITSSTGSTYYADSVKGRFTISRDNAKNTVYLQMNSLKPEDTAVYYCAAERTYLDRGFDYWGQGTQVTVSS” here?
**A.** Its value is “low polyreactivity”.

**Q.** Which “polyreactivity (PSR sort gate)” value does the source give for “QVQLVESGGGLVQAGGSLRLSCAASGRIFEAYAMGWYRQAPGKERELVAAISGSGGSTYYADSVKGRFTISRDNAKNTVYLQMNSLKPEDTAVYYCAADDYYRVYWGQGTQVTVSS” here?
**A.** Its value is “high polyreactivity”.

**Q.** Which “polyreactivity (PSR sort gate)” value does the source give for “QVQLVESGGGLVQAGGSLRLSCAASGRIFEGYAMGWYRQAPGKERELVAAITGSGGGTYYADSVKGRFTISRDNAKNTVYLQMNSLKPEDTAVYYCATAYSAYQHPYGYWGKGTQVTVSS” here?
**A.** Its value is “low polyreactivity”.

**Q.** For “QVQLVESGGGLVQAGGSLRLSCAASGRIFEGYAMGWYRQAPGKERELVAAITGSGGGTYYADSVKGRFTISRDNAKNTVYLQMNSLKPEDTAVYYCATAYSAYQHPYGYWGQGTQVTVSS”, which “polyreactivity (PSR sort gate)” value is on record?
**A.** The value was “low polyreactivity”.

**Q.** Which “polyreactivity (PSR sort gate)” value does the source give for “QVQLVESGGGLVQAGGSLRLSCAASGRIFEHNAMGWYRQAPGKEREFVAAISSSGGSTYYADSVKGRITISRDNAKNTVYLQMNSLKPVDTAVYYCNAGSTYYERNYWGQGTQVTVSS” here?
**A.** Its value is “low polyreactivity”.

**Q.** With “QVQLVESGGGLVQAGGSLRLSCAASGRIFEINTMGWYRQAPGKERELVAAISRGGGSTYYADSVKGRFTISRDNAKNTVYLQMNSLKPEDTAVYYCAAASYYVEGDYWGQGTQVTVSS” as the sequence, how does the “polyreactivity (PSR sort gate)” value read?
**A.** The value was “low polyreactivity”.

**Q.** For “QVQLVESGGGLVQAGGSLRLSCAASGRIFEIYAMGWYRQAPGTERELVAPISWRGVSTYYADSVKGRFTISRDNAKNTVYVQMNSLKAEDTAVYYCGPELGWGGFYKDGDASQFDYWGQGTQVTVSS”, which “polyreactivity (PSR sort gate)” value is on record?
**A.** The value was “low polyreactivity”.

**Q.** Which “polyreactivity (PSR sort gate)” value does the source give for “QVQLVESGGGLVQAGGSLRLSCAASGRIFENNAMGWYRQAPGKERELVAAITSSGGRTYYADSVKGRFTISRDNAKNTVYLQMNSLIPEDTAVYYCNAYQYYERYDTYLFRYDYWGQGTQVTVSS” here?
**A.** The value was “low polyreactivity”.

**Q.** Which “polyreactivity (PSR sort gate)” value does the source give for “QVQLVESGGGLVQAGGSLRLSCAASGRIFESYAMGWYRQAPGKERELVAAISRSGGSTYYADSVKGRFTISRDNAKNTVYLQMNSLKPEDTAVYYCNTYYYHHYDYWGQGTQVTVSS” here?
**A.** The value was “high polyreactivity”.

**Q.** For “QVQLVESGGGLVQAGGSLRLSCAASGRIFEYYAMGWYRQAPGKERELVAAINTGGNTYYADSVKGRFTISRDNAKNTVYLLMNSLKPEDTAVYYCATYPIWYGGYLSGTDYDYWGQGTQVTVSS”, which “polyreactivity (PSR sort gate)” value is on record?
**A.** The value was “low polyreactivity”.

**Q.** For “QVQLVESGGGLVQAGGSLRLSCAASGRIFEYYVMGWYRQAPGKERELVAAINRRGTSTYYADSVKGRFTISRDNAKNTVDLQMNSLKPEDTAVYYCAAVDRDYARTTTYDYCGQGTQVTVSS”, which “polyreactivity (PSR sort gate)” value is on record?
**A.** Its value is “high polyreactivity”.

**Q.** Which “polyreactivity (PSR sort gate)” value does the source give for “QVQLVESGGGLVQAGGSLRLSCAASGRIFFGNAMGWYRLAPGKEREFVAAITWRGGNTYYADSVKGRFTISRDNAKNTVYLQMNSLKPEDTAVYDCNASPSEVRRRYDYWGQGTQVTVSS” here?
**A.** The value was “high polyreactivity”.

**Q.** With “QVQLVESGGGLVQAGGSLRLSCAASGRIFFGYAMGWYRPAPGKEREFVAAINWIGGRTYYAASVKGRFTISRDNAKNTVYLQMNSLKPEDTAVYYCAKEVSPYWTFDYWGQGTQVTVSS” as the sequence, how does the “polyreactivity (PSR sort gate)” value read?
**A.** The value was “low polyreactivity”.

**Q.** For “QVQLVESGGGLVQAGGSLRLSCAASGRIFFGYAMGWYRPAPGKERVLVAAISSRGGSTYYADSVKGRFTISRDNAKNTVYLKMNSLKPEDTAVYYCARKRYKRSTRTEFGYWGQGTQVTVSS”, which “polyreactivity (PSR sort gate)” value is on record?
**A.** The value was “high polyreactivity”.
